# Assay results as given in patent US20260008852A1 (CRYSTAL BIOSCIENCE, published 2026).
# Where a chain is given by its changes, count along the chain named.
# T1: His-tagged human B7-H3 (human, UniProt Q5ZPR3-2 29-245, limits assumed)
# T1 construct: Bought His-tagged protein coated on the ELISA plate; also called hu B7-H3; CD276
# T1 sequence (looked up): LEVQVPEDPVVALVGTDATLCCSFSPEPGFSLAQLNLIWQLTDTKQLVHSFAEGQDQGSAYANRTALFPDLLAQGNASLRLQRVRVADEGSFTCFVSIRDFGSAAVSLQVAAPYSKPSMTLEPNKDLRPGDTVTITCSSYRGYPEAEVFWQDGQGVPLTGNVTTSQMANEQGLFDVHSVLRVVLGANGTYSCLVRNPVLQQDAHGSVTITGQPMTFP
# T2: B7-H3 on B7-H3-expressing CHO cells (Genescript) (UniProt Q5ZPR3 29-534, limits assumed)
# T2 construct: whole, on cells; also called CHO-K1/B7-H3; MFI B7-H3
# T2 sequence (looked up): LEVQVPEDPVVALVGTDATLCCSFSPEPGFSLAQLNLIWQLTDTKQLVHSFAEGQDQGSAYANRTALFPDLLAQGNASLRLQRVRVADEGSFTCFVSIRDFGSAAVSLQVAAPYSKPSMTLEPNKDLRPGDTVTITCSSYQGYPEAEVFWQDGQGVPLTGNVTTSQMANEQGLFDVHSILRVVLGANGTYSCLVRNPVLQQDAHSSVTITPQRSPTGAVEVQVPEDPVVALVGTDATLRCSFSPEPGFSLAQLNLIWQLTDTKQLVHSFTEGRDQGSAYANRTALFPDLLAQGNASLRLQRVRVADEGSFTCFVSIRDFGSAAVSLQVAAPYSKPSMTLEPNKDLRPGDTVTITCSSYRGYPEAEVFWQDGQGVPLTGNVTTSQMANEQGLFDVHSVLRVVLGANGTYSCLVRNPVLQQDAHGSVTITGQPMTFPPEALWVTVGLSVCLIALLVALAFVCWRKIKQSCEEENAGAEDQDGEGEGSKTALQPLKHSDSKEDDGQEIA
# T3: His-tagged mouse B7-H3 (mouse, UniProt Q8VE98 29-244, limits assumed)
# T3 construct: Bought His-tagged protein coated on the ELISA plate; also called mu B7-H3; murine B7-H3
# T3 sequence (looked up): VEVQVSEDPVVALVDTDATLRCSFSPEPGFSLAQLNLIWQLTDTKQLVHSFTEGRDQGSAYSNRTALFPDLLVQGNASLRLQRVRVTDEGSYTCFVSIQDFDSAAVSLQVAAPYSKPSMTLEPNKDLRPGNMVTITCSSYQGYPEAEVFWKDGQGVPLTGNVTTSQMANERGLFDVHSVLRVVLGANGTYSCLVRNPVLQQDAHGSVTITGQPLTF
# T4: His-tagged cynomolgus monkey B7-H3 (cynomolgus monkey)
# T4 chain: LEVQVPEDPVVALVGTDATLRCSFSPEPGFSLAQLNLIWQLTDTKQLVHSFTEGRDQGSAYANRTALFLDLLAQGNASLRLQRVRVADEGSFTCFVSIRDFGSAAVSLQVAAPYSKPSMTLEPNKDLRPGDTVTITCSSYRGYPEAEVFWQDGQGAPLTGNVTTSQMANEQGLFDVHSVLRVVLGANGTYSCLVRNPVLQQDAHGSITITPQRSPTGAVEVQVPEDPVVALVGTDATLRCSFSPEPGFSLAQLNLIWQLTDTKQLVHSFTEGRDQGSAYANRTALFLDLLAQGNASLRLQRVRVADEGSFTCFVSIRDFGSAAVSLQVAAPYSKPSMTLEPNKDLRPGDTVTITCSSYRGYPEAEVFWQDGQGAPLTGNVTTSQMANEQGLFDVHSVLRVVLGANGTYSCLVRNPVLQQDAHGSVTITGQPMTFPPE
# B1: 40633p1.2.D11 (scFv, V domains shown)
# VH: EVQLESGGGLVQPGGSLRLSCAASGFTVSYYGMSWVRQAPGKGLEWVSAIKQDGSEKYYADSVKGRFTISRDNSKNTLYLQMNSLRAEDTAVYYCARHWNDYSNAMNVWGQGTTVTVSS
# VL: QSVLTQPPSASGTPGQRVTISCSGSTSNIAIDFVNWYQQLPGTAPKLLIYTIDQRPSGVPDRFSGSKSGTSASLAISGLQSEDEAVYYCASWDASLNGWVFGRGTKLTVL
# notes: Tested as scFv-Fc (Expi293 supernatant)
# B2: 40511p1.1.D8 (scFv, V domains shown)
# VH: DVQLVESGGGVVRPGESLRLSCAASGFTFSSYAMSWVRQAPGEGLEWVSSISGSGGSTLYADSVKGRFTISRDSSNNSLYLQMNSLRAEDTAVYYCAKARNNFFDYWGLGTLVTVSS
# VL: EIVLTQSPGTLTLSPGERATLSCRASRSILTSLAWYQQRPGQAPRLLIYGANSRATGIPDRFSGSGSGTEFTLTISSLQSEDFAVYYCQQYYDWLTITFGGGTKVEIK
# notes: as for B1
# B3: 40511p1.2.B5 (scFv, V domains shown)
# VH: B2 VH
# VL: B2 VL with A43T
# notes: as for B1
# B4: 40511p1.2.A12 (scFv, V domains shown)
# VH: DVQLVESGGGVVRPGESLRLSCAASGFTFSSYAESWVRQAPGEGLEWVSIISGSGGNTFYADSVKGRFTISRDNSKNTLYLQMNSLRAEDTAVYYCARFAYGFFDYWGLGTLVTVSS
# VL: EIVLTQSPGTLSVSPGERATLSCRASQTVGSKLAWYQQKPGQPPSLLIYDASTRATGIPDRFSGSGSGTDFTLTISSLQSEDFAVYYCQQYRNWPPLTFGGGTKVEIK
# notes: Tested as scFv-Fc (Expi293 supernatant); also called 40511p1.2.Al2
# B5: 40511p1.1.D6 (scFv, V domains shown)
# VH: DVQLVESGGGVVRPGESLTLSCAASGFTINSYAVSWVRQAPGEGLEWVSGISGSGVRYYADSVKGRFTISRDNSNNTLYLQMNSLRAEDTAVYYCARSNKVTWNNFFDYWGLGTLVTVSS
# VL: EVVLTQSPGTLTLSPGERATLSCRASRSILTSLAWYQQKPGQAPRLLIYNTVTRATGIPARFSGSGSGTEFTLTINSLQSEDFAVYYCQQYYDWPPLTFGGGTKVEIK
# notes: as for B1
# B6: 40511p1.1.G3 (scFv, V domains shown)
# VH: B5 VH with N73D
# VL: B5 VL
# notes: as for B1
# B7: 40633p1.2.D1 (scFv, V domains shown)
# VH: EVQLLESGGGLVQPGGSLRLSCAASGFTFDVYGMSWVRQAPGKGLEWVSAINWNGGSTYYADSVKGRFTISRDNSENTLYLQMNSLRAEDTAVYYCAKEKWKHFIYYGMDVWGQGTTVTVSS
# VL: QSVLTQPASASGTPGQTVSISCSGSSSNIDSNTANWYQQLPGTAPKLLIYSNNQRPSGVPDRFSGSKSDTSASLAISGLQSEDEGDYYCSAWDDNLNGWLFGGGTKLTVL
# notes: as for B1
# B8: 40633p1.2.E5 (scFv, V domains shown)
# VH: B7 VH with V31G, N52S, W53G, G55S, T58I, E76K, V93A
# VL: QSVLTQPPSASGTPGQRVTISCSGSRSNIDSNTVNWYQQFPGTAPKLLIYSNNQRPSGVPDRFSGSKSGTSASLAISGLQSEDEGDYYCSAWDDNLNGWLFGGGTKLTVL
# notes: as for B1
# Molecular target: T1, His-tagged human B7-H3
# Experiment: ELISA OD450 on hu B7-H3 over OD450 on mu B7-H3
row,hu:mu ratio,Binder
1,1.49,B1
2,2.39,B2
3,2.78,B3
4,1.25,B4
5,1.19,B5
6,1.24,B6
7,1.08,B7
8,1.12,B8

# Molecular target: T2, B7-H3 on B7-H3-expressing CHO cells …
# Experiment: flow cytometry, B7-H3-expressing CHO cells, 10 ug/ml
# Method in brief: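 Antibodies at 10 μg/ml in PBS/1% BSA/0.01% NaN3 incubated 60 min on ice with ~1.5e5 cells; parental CHO cells as counterscreen. After washing, read by flow cytometry; values are mean fluorescent intensities (MFI).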
row,MFI @ 10 ug/ml [MFI],Binder
1,63200,B1
2,79200,B2
3,67900,B3
4,77200,B4
5,84200,B5
6,89100,B6
7,14100,B7
8,86600,B8

# Molecular target: T3, His-tagged mouse B7-H3
# Experiment: ELISA, coated His-tagged antigen, scFv-Fc 1 ug/ml
row,ELISA OD450 @ 1 ug/ml [OD450],Binder
1,1.03,B1
2,0.891,B2
3,0.771,B3
4,1.7,B4
5,1.61,B5
6,1.71,B6
7,1.38,B7
8,1.92,B8

# Molecular target: T4, His-tagged cynomolgus monkey B7-H3
# Experiment: ELISA, coated His-tagged antigen, scFv-Fc 1 ug/ml
row,ELISA OD450 @ 1 ug/ml [OD450],Binder
1,1.95,B1
2,2.02,B2
3,2.12,B3
4,2.34,B4
5,2.11,B5
6,1.97,B6
7,1.94,B7
8,2.08,B8

# Molecular target: T1, His-tagged human B7-H3
# Experiment: ELISA, coated His-tagged antigen, scFv-Fc 1 ug/ml
row,ELISA OD450 @ 1 ug/ml [OD450],Binder
1,1.53,B1
2,2.13,B2
3,2.14,B3
4,2.13,B4
5,1.92,B5
6,2.13,B6
7,1.49,B7
8,2.15,B8
